One data set deals with corneodesmosin. Nature of the data set: Degradation of corneodesmosin extracted from human stratum corneum. Format: biochemical. The following applies: for % Residual corneodesmosin T24 h/T0*100 / Standardized corneodesmosin T24 h / Standardized corneodesmosin T0: stratum corneum acetone powder; for % Residual corneodesmosin T24 h/T0*100 / Standardized corneodesmosin T24 h: acetate buffer pH 5, 30° C.; for Standardized corneodesmosin T0: acetate buffer pH 5, T0. As for the experimental part:
Corneodesmosin is a marker for desquamation since it is involved in corneocyte cohesion at corneodesmosomes. The more the protein is degraded, the more significant is the detachment of the corneocytes. Corneodesmosin degradation is therefore a key step of desquamation.
The test used in this study therefore consists in following this degradation in the presence of the test substance.
Acetone powders are prepared using stripping varnish (Mehul B, Bernard D, Simonetti L, Bernard M A, Schmidt R: Identification and cloning of a new calmodulin-like protein from human epidermis. J Biol Chem 275: […], 2000), taken from the lower parts of the legs of volunteers with dry skin. Aliquot fractions of 2 mg of stratum corneum powder are introduced separately into Eppendorf tubes, and then immersed in the test solutions in a proportion of 100 μl/mg. The solutions are prepared in acetate buffer, pH 5. A control without protease is prepared in parallel in order to evaluate the natural degradation of corneodesmosin. For each test, three samples are prepared. The samples, trials and control, are incubated at 30° C., with stirring for 24 hours.
The proteins are extracted with complete Laemmli buffer. They are assayed by the Bradford method (Bio-Rad® kit). The concentration of each sample is adjusted so as to allow comparison of the samples. The polypeptides are separated by SDS-PAGE electrophoresis on a 15% acrylamide gel, and then transferred onto a PVDF membrane. Immunodetection with a solution of anti-corneodesmosin antibody used at 1/12 500 and of secondary antibody coupled to peroxidase makes it possible to visualize the corneodesmosin. The bands detected by chemiluminescence are quantified using the Quantity One® program from the company Biorad. The membranes are then stained with amido-black, and then scanned. In addition, the keratins, which are major proteins of corneocyte extracts, are quantified in order to verify the adjustment to 0.6 mg/ml of all the samples.
A positive control for degradation (+) is prepared using 5 mM of EDTA. A trial is carried out in the presence of 60 μg of activated SASPase. A negative control represents the natural degradation of corneodesmosin under the operating conditions of the test.

For data set [1], the target named is T1, activated SASPase (SEQ ID NO: 6) (Homo sapiens, UniProt Q53RT3).
T1 construct: GST (N, cleaved yes); made in house; host or cells: E. coli BL21 (DE3)
T1 sequence (Q53RT3 189-326): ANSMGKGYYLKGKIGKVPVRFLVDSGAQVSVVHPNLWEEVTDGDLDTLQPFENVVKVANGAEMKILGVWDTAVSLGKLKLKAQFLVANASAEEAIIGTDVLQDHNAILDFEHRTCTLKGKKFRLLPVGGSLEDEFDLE
Nature of the data set: Effect of retropepsin inhibitors on the caseinolytic activity of the activated SASPase. It is filed as biochemical. The following applies: activated SASPase in 0.1 M acetate buffer pH 5.5 with DMSO, pre-incubated 1 hour at 4° C., Enzchek casein, 37° C., FIG. 3. As for the experimental part:
10 μl of activated SASPase (SEQ ID NO: 6) that have been autoactivated (approximately 3 mg/ml) are added to 200 μl of 0.1 M acetate buffer, pH 5.5, containing 20 μl of DMSO with retropepsin inhibitors. A control assay is carried out under the same conditions in the absence of inhibitor.
The mixture is pre-incubated at 4° C. for 1 hour, and the substrate, casein, sold under the name Enzchek® by the company Molecular Probes, is then added in sufficient amount to obtain the concentration recommended by the supplier, the solutions having been heated to 37° C. beforehand.
The casein hydrolysis is followed by measuring the fluorescence on a Biolumin® plate reader sold by the company Molecular Probes, using the excitation/emission couple: 485/535 nm.

For another data set, the target named is T2, SASPase (GST-C27) (Homo sapiens, UniProt Q53RT3).
T2 construct: made in house; host or cells: E. coli BL21 (DE3)
T2 sequence (Q53RT3 85-343): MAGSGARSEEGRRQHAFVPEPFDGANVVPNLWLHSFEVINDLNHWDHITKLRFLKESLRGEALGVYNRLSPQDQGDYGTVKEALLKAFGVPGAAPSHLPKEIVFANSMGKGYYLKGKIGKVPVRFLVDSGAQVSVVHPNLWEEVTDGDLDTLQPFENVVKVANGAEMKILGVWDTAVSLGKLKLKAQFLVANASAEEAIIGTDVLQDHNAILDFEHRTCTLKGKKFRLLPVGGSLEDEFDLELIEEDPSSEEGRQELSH
Nature of the data set: Hydrolysis of quenched Abz/(NO2)Tyr peptide substrates by the SASPase. It is filed as biochemical. As for the experimental part: The peptide substrate considered (SEQ ID NO: 31, SEQ ID NO: 32, SEQ ID NO: 33, SEQ ID NO: 34 or SEQ ID NO: 35) quenched using the Abz/(NO2)Tyr fluorescent system is used at 100 μM in DMSO, and then 10 μl of this stock substrate solution are added per 100 μl of 0.1 M acetate buffer, pH 5.00.
10 μg of GST-C27 (fusion protein at 1 mg/ml in PBS) are added. Incubation is carried out at 37° C. The fluorescence is read at 340/450 nm on a Biolumin plate reader at various times.

The subject of data set [2] is SASPase C27 (autocleavage). Nature of the data set: Autocleavage of the SASPase C27 and of its mutants (SDS-PAGE). It is filed as biochemical, human. The following applies: fusion protein in 1 M acetate buffer pH 4.5, 37° C., SDS-PAGE over time. On the procedure: The SASPase sequence SEQ ID NO: 5 is modified at aspartic acid No. 212, i.e. on its potential active site. To do this, two oligonucleotides are synthesized such that amino acid 212 is substituted either to alanine (mutant A/D), or to glutamic acid (mutant E/D).
The mutated recombinant proteins are produced according to the same protocol as for the wild-type form, SASPase C27; (SEQ ID NO: 4).
Each recombinant protein produced in fusion protein form is then incubated in a 1 M acetate buffer, pH 4.5, at 37° C. Samples are taken over time and are analyzed by SDS-PAGE.

Data set [3] concerns oxidized beta-chain of insulin. Nature of the data set: Hydrolysis of the oxidized beta-chain of insulin followed by HPLC. It is filed as biochemical. On the procedure:
The oxidized beta-chain of insulin (Sigma) is used as substrate. The concentration is 50 μg in 1.5 ml of 0.1 M acetate buffer, pH 5.0. 50 μl of 12 kD SASPase (SEQ ID NO: 6) (approximately 1 mg/ml) purified by gel filtration are added so as to initialize the hydrolysis. Controls without enzyme or without substrate are used. Over time (1 h to 24 h at 37° C.), HPLCs are performed in order to follow the hydrolysis. The peaks that appear rapidly correspond to the main hydrolysis sites and those that only appear after 24 h correspond to the secondary sites. The peaks are collected after they have been fractionated, and are N-terminal sequences (EDMAN sequencing, Pasteur Institute).

A further data set has as its system casein. Nature of the data set: Influence of pH on the proteolytic activity of SASPase (Enzchek casein substrate). It is filed as biochemical. As for the experimental part: 10 μl of GST-SASPase Δ 1-84 fusion proteins (approximately 3 mg/ml) obtained in example II are incubated in 200 μl of 0.1 M acetate buffer, adjusted to various pH values in the presence of the casein substrate sold under the name Enzchek® by the company Molecular Probes, and used at the concentrations recommended by the supplier.
Each assay is repeated three times.
After incubation at 37° C. for 20 hours, the fluorescence is measured on a plate reader sold under the name Biolumin® by the company Molecular Probes, using the excitation/emission couple: 485/535 nm.

[ ]: non-standard residue; d: D form. Nle = CCCC[C@H](N)C(=O)O

On to `O=C(O)CN(CCN(CC(=O)O)CC(=O)O)CC(=O)O` [+control, EDTA, reference compound], for which, in the data set with corneodesmosin (24 hours), the “% Residual corneodesmosin T24 h/T0*100” value was 84% and the “Standardized corneodesmosin T24 h” value is given as 26685. The “Standardized corneodesmosin T0” value in the data set with corneodesmosin came out at 31657.
As for Ac-Leu-Leu-Met-aldehyde [RP2], the “kinetics for casein hydrolysis compared with the control” value in data set [1] was “lower than the control”.
The same measure, in the same setting: in the case of “Ac-Leu-Leu-Nle-aldehyde (Ac-Leu-Leu-[Nle]-aldehyde) [RP3]” it was “significantly higher”; in that of Ac-Leu-Val-Phe-aldehyde [RP1], “lower than the control”.
For “EFDLDLIEED (listed as Homo sapiens) [SEQ ID NO: 32]”, the “effect of the peptide substrate on the SASPase” value in the data set with SASPase (GST-C27) is recorded as “activator effect”.
“EFDLELIEED (listed as Homo sapiens) [SEQ ID NO: 31]”: the “effect of the peptide substrate on the SASPase” value in the data set with SASPase (GST-C27) was “activator effect”. Besides, the “hydrolysis of the peptide substrate by the SASPase” value in the data set with SASPase (GST-C27) (0.1 M acetate buffer pH 5.00, 10 μg GST-C27, 37° C., fluorescence 340/450 nm, FIG. 5) is “effectively hydrolyzed”.

B1: (A/D): SASPase mutant, aspartic acid No. 212 substituted to alanine (protein, UniProt Q53RT3 191-326, looked up, variant D212A)
Retroviral-like aspartic …: SMGKGYYLKGKIGKVPVRFLVASGAQVSVVHPNLWEEVTDGDLDTLQPFENVVKVANGAEMKILGVWDTAVSLGKLKLKAQFLVANASAEEAIIGTDVLQDHNAILDFEHRTCTLKGKKFRLLPVGGSLEDEFDLE
Consider B1, for which the autocleavage / autoactivation result in data set [2] was “do not autoactivate”.

B2: (E/D): SASPase mutant, aspartic acid No. 212 substituted to glutamic acid (protein, UniProt Q53RT3 191-326, looked up, variant D212E)
Retroviral-like aspartic …: SMGKGYYLKGKIGKVPVRFLVESGAQVSVVHPNLWEEVTDGDLDTLQPFENVVKVANGAEMKILGVWDTAVSLGKLKLKAQFLVANASAEEAIIGTDVLQDHNAILDFEHRTCTLKGKKFRLLPVGGSLEDEFDLE
As to B2, the autocleavage / autoactivation result in data set [2] is listed as “do not autoactivate”.

B3: GST-SASPase C27: recombinant fusion protein of glutathione S-transferase with truncated SASPase Δ 1-84 (SEQ ID NO: 4) (protein, listed as Homo Sapiens)
chain: MAGSGARSEEGRRQHAFVPEPFDGANVVPNLWLHSFEVINDLNHWDHITKLRFLKESLRGEALGVYNRLSPQDQGDYGTVKEALLKAFGVPGAAPSHLPKEIVFANSMGKGYYLKGKIGKVPVRFLVDSGAQVSVVHPNLWEEVTDGDLDTLQPFENVVKVANGAEMKILGVWDTAVSLGKLKLKAQFLVANASAEEAIIGTDVLQDHNAILDFEHRTCTLKGKKFRLLPVGGSLEDEFDLELIEEDPSSEEGRQELSH
For the molecule B3, the autocleavage / autoactivation entry in data set [2] is listed as “autocleavage”.

B4: activated SASPase: truncated 12 kD activated form of the aspartic acid protease SASPase, sequence SEQ ID NO: 6 (protein, listed as Homo Sapiens)
chain: ANSMGKGYYLKGKIGKVPVRFLVDSGAQVSVVHPNLWEEVTDGDLDTLQPFENVVKVANGAEMKILGVWDTAVSLGKLKLKAQFLVANASAEEAIIGTDVLQDHNAILDFEHRTCTLKGKKFRLLPVGGSLEDEFDLE
Consider B4, for which, in the data set with corneodesmosin (60 μg of activated SASPase, 24 hours), the “percentage of residual corneodesmosin compared with the controls” value was “significant decrease”. In addition, in the data set on corneodesmosin (24 hours), the “% Residual corneodesmosin T24 h/T0*100” value stood at 75% and the “Standardized corneodesmosin T24 h” value is listed as 24918. Moreover, the “Standardized corneodesmosin T0” value in the data set with corneodesmosin is 33107. For the same molecule, in data set [3] (0.1 M acetate buffer pH 5.0, 37° C., 1 h to 24 h), the insulin-degrading activity result was “capable of degrading insulin”.

B5: SASPase: novel aspartic acid protease from human keratinocytes, sequence SEQ ID NO: 5; in b201 and b239 the word covers the form tested (protein, listed as Homo Sapiens)
chain: MGSPGASLGIKKALQSEQATALPASAPAVSQPTAPAPSCLPKAGQVIPTLLREAPFSSVIAPTLLCGFLFLAWVAAEVPEESSRMAGSGARSEEGRRQHAFVPEPFDGANVVPNLWLHSFEVINDLNHWDHITKLRFLKESLRGEALGVYNRLSPQDQGDYGTVKEALLKAFGVPGAAPSHLPKEIVFANSMGKGYYLKGKIGKVPVRFLVDSGAQVSVVHPNLWEEVTDGDLDTLQPFENVVKVANGAEMKILGVWDTAVSLGKLKLKAQFLVANASAEEAIIGTDVLQDHNAILDFEHRTCTLKGKKFRLLPVGGSLEDEFDLELIEEDPSSEEGRQELSH
Take B5: the “activity in phosphate buffer” value in the data set with casein (0.1 M phosphate buffer of pH 6 to 7.5, assays not shown) is “only a weak residual activity”. For the same molecule, in the data set on casein (GST-SASPase Δ 1-84 fusion protein, 0.1 M acetate buffer, 37° C., 20 hours, FIG. 2), the “optimal pH of enzymatic activity” value was determined as 5 pH. In data set [3] (heat denaturation 95° C., 10 min), the “insulin-degrading activity after heat denaturation” value was “abolishes its insulin-degrading activity”.

For the origin of these results see patent publication US7888315B2, “Use of aspartic proteases in cosmetics and therapeutics” (L'Oreal, priority 2002, dated 2011).
